According to US20200109211A1:

Molecular target: human CD160 (CD160 GPI isoform) on cells (human) (UniProt O95971)
Test: flow cytometry, percentage of labelled YT2C2 NK cells, 0.39-50 nM; the text means weaker binding

human CD160 (CD160 GPI isoform) on cells (human), sequence (O95971 25-159 limits assumed): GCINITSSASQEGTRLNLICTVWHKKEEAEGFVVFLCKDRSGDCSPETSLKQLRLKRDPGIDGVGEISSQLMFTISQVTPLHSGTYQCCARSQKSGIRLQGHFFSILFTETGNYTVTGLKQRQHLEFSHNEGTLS

B1: Fab CH1 IgG1 D12 (Fab)
heavy: QVQLVQSGAEVKKPGASVKVSCKASGYTFSDFWMQWIRQAPGQGLEWIGAIYPGDDDARVTQKFRGRATLTADKSTSTAYMELSSLRSEDTAVYYCARRGIAAVVGGFDYWGQGTTLTVSSASTKGPSVFPLAPSSKSTSGGTAALGCLVKDYFPEPVTVSWNSGALTSGVHTFPAVLQSSGLYSLSSVVTVPSSSLGTQTYICNVNHKPSNTKVDKRV
light: EIVLTQSPATLSLSPGERATLSCRASQSISNHLHWYQQKPGQAPRLLIKYASQSISGIPARFSGSGSGTDFTLTISSLEPEDFAVYFCQQSNSWPLTFGGGTKVEIKRTVAAPSVFIFPPSDEQLKSGTASVVCLLNNFYPREAKVQWKVDNALQSGNSQESVTEQDSKDSTYSLSSTLTLSKADYEKHKVYACEVTHQGLSSPVTKSFNRGEC
Binder B1 has an EC50, factor against H7 IgG4 (ELB01101) of 2 fold.
